The target in assay [1] is T1, His-tagged human CD73 ECD (human) (UniProt P21589).
T1 sequence: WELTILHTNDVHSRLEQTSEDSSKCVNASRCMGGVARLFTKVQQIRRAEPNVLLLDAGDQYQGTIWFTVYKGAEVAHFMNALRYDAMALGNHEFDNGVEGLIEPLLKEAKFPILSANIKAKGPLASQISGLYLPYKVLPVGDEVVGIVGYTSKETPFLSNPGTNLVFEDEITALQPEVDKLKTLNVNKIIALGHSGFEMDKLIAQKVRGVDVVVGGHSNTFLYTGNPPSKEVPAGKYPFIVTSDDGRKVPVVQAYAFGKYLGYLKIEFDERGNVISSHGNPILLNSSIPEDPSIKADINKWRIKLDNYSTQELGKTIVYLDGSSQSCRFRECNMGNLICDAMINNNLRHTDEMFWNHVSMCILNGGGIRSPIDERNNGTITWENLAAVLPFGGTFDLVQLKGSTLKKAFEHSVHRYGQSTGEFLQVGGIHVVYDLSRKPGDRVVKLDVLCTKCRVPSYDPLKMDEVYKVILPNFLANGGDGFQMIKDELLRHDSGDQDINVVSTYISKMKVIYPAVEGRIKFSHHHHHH
As to the kind of experiment: SEC-MALS, mAb:CD73 0.1:1. On the technique in general: SEC sorts molecules by how far they enter the pores of the column.

For assay [2], the target named is T1, His-tagged human CD73 ECD (human). As to the kind of experiment: SEC-MALS, mAb:CD73 1:1.
The target is the same in assay [3]. Kind of assay: SPR, mAb captured, His-tagged CD73 ECD injected. A general note: In SPR one partner is held on a chip, and binding of the other changes the refractive index at the surface.
Assay [4] concerns the target His-tagged cynomolgus CD73 ECD (cynomolgus monkey (Macaca fascicularis)). Kind of assay: SPR, mAb captured, His-tagged CD73 ECD injected.
Assay [5] deals with T1, His-tagged human CD73 ECD (human). As to the kind of experiment: SEC-MALS, mAb:CD73 0.5:1.
Assay [6] concerns the target cynomolgus CD73 ECD fused C-terminally to human IgG1 Fc (cynomolgus monkey (Macaca fascicularis); human). As to the kind of experiment: SPR, Fc-tagged CD73 ECD captured, Fab injected.
Assay [7] addresses T2, human CD73 ECD fused C-terminally to human IgG1 Fc (human) (UniProt P21589).
T2 sequence: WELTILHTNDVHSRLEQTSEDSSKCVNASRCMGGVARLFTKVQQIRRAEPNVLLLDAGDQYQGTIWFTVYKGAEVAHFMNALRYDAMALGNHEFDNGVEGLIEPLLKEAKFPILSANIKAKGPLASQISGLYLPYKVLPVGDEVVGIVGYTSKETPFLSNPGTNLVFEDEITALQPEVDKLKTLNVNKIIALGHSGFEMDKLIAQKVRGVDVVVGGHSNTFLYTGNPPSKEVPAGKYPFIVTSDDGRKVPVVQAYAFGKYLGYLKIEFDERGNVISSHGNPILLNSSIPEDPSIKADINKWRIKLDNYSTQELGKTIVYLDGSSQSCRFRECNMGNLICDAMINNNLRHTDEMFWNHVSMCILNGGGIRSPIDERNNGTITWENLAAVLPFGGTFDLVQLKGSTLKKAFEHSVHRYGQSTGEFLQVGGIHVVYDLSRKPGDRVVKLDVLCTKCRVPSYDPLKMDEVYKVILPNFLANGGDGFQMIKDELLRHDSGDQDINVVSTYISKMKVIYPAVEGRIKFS
As to the kind of experiment: SPR, Fc-tagged CD73 ECD captured, Fab injected.

Assay [8] deals with human CD73 expressed on cells (human) (UniProt P21589). Kind of assay: cell-based or functional assay. The conditions noted are these: scale: % viable cells compared to untreated cells.

B1: 11E1 analogue (Innate Pharma) (antibody, from another filing, IgG1, V domains shown)
VH: EIQLQQSGPELVKPGASVKVSCKASGYAFTSYNMYWVKQSHGKSLEWIGYIDPYNGGTSYNQKFKGKATLTVDKSSSTAYMHLNSLTSEDSAVYYCARGYGNYKAWFAYWGQGTLVTVSA
VL: DAVMTQTPKFLLVSAGDRVTITCKASQSVTNDVAWYQQKPGQSPKLLIYYASNRYTGVPDRFTGSGYGTDFTFTISTVQAEDLAVYFCQQDYSSLTFGAGTKLELK
For orientation: Kd means a measure of binding affinity in units of concentration. In general, koff refers to the first-order rate constant of dissociation. The kon is the second-order rate constant of association. In assay [1], B1 had a molecular mass of complex, Peak 2 (MW, kDa) of 265 kDa; a molecular mass of complex, Peak 3 (MW, kDa) of 704 kDa; a molecular mass of complex, Peak 4 (MW, kDa) of 11800 kDa. In assay [2], this molecule had a molecular mass of complex, Peak 2 (MW, kDa) of 270 kDa; a molecular mass of complex, Peak 3 (MW, kDa) of 511 kDa; a molecular mass of complex, Peak 4 (MW, kDa) of 802 kDa. In assay [3], this molecule had a Kd of 0.1 nM, a koff of 5.6e-06 s⁻¹ and a kon of 57000 M⁻¹ s⁻¹. In assay [4], this molecule returned a Kd of 0.14 nM, a koff of 1.3e-05 s⁻¹ and an on-rate constant (kon) of 84000 M⁻¹ s⁻¹. Also, in assay [5], the molecular mass of complex, Peak 2 (MW, kDa) was 277 kDa; the molecular mass of complex, Peak 3 (MW, kDa) was found to be 566 kDa; the molecular mass of complex, Peak 4 (MW, kDa) came out at 3370 kDa.

B2: 11E1 analogue Fab fragment (Fab, from another filing, V domains shown)
VH: B1 VH
VL: B1 VL
In assay [6], B2 showed a Kd of 8.7 nM, an off-rate (koff) of 0.0028 s⁻¹ and a kon of 320000 M⁻¹ s⁻¹. In assay [7], this molecule showed a Kd of 9.8 nM, a dissociation rate constant (koff) of 0.0028 s⁻¹ and an on-rate constant (kon) of 290000 M⁻¹ s⁻¹.

B3: CPX006 analogue (Corvus) (antibody, from another filing, IgG1, V domains shown)
VH: QVQLVQSGAEVEKPGASVKVSCKASGYTFTSYWITWVRQAPGQGLEWMGDIYPGSGNTNYNEKFKTRVTITADKSTSTAYMELSSLRSEDTAVYYCAKEGGLTTEDYALDYWGQGTLVTVSS
VL: EIVLTQSPATLSLSPGERATLSCRASKNVSTSGYSYMHWYQQKPGQAPRLLIYLASNLESGIPPRFSGSGYGTDFTLTINNIESEDAAYYFCQHSRELPFTFGQGTKVEIKR
In assay [1], B3 yielded a molecular mass of complex, Peak 2 (MW, kDa) of 121 kDa; a molecular mass of complex, Peak 3 (MW, kDa) of 236 kDa; a molecular mass of complex, Peak 4 (MW, kDa) of 339 kDa. Moreover, in assay [2], the molecular mass of complex, Peak 2 (MW, kDa) is 148 kDa; the molecular mass of complex, Peak 3 (MW, kDa) stood at 246 kDa; the molecular mass of complex, Peak 4 (MW, kDa) was found to be 363 kDa. For the same molecule, in assay [3], the equilibrium dissociation constant (Kd) came out at 0.02 nM, the koff is 2.4e-06 s⁻¹ and the kon turned out to be 170000 M⁻¹ s⁻¹. In assay [4], this molecule registered a Kd of 0.33 nM, a koff of 1.4e-05 s⁻¹ and an association rate constant (kon) of 28000 M⁻¹ s⁻¹. Besides, in assay [5], the molecular mass of complex, Peak 2 (MW, kDa) worked out at 143 kDa; the molecular mass of complex, Peak 3 (MW, kDa) turned out to be 245 kDa; the molecular mass of complex, Peak 4 (MW, kDa) amounted to 349 kDa.

B4: CPX006 analogue Fab fragment (Fab, from another filing, V domains shown)
VH: B3 VH
VL: B3 VL
As for B4, in assay [6], the dissociation constant Kd worked out at 71.6 nM, the koff stood at 0.00048 s⁻¹ and the on-rate (kon) came to 6700 M⁻¹ s⁻¹. In assay [7], the equilibrium dissociation constant (Kd) was 80.3 nM, the koff worked out at 0.00053 s⁻¹ and the association rate constant (kon) was 6600 M⁻¹ s⁻¹.

B5: oleclumab analogue (MEDI9447, Medimmune) (antibody, INN chains, looked up, V domains shown)
VH: EVQLLESGGGLVQPGGSLRLSCAASGFTFSSYAYSWVRQAPGKGLEWVSAISGSGGRTYYADSVKGRFTISRDNSKNTLYLQMNSLRAEDTAVYYCARLGYGRVDEWGRGTLVTVSS
VL: QSVLTQPPSASGTPGQRVTISCSGSLSNIGRNPVNWYQQLPGTAPKLLIYLDNLRLSGVPDRFSGSKSGTSASLAISGLQSEDEADYYCATWDDSHPGWTFGGGTKLTVL
modifications: IgG1-TM
With B5, the viable MDA-MB-468 cells in the presence of 300 µM AMP (WST-1) in assay [8] was in the range of 70 to 80. In assay [1], this molecule registered a molecular mass of complex, Peak 2 (MW, kDa) of 194 kDa; a molecular mass of complex, Peak 3 (MW, kDa) of 432 kDa; a molecular mass of complex, Peak 4 (MW, kDa) of 821 kDa. In assay [2], this molecule returned a molecular mass of complex, Peak 2 (MW, kDa) of 389 kDa; a molecular mass of complex, Peak 3 (MW, kDa) of 682 kDa; a molecular mass of complex, Peak 4 (MW, kDa) of 1040 kDa. Further, in assay [3], the dissociation constant Kd worked out at 0.02 nM, the off-rate (koff) is 2.5e-06 s⁻¹ and the kon came out at 110000 M⁻¹ s⁻¹. Further, in assay [4], the dissociation constant Kd stood at 0.06 nM, the koff is 6.6e-06 s⁻¹ and the on-rate constant (kon) is 140000 M⁻¹ s⁻¹. In assay [5], this molecule had a molecular mass of complex, Peak 2 (MW, kDa) of 870 kDa; a molecular mass of complex, Peak 3 (MW, kDa) of 559 kDa; a molecular mass of complex, Peak 4 (MW, kDa) of 1010 kDa.

B6: oleclumab analogue Fab fragment (Fab, INN chains, looked up, V domains shown)
VH: B5 VH
VL: B5 VL
modifications: Fab
In assay [6], B6 came in with a Kd of 0.07 nM, a koff of 4.3e-05 s⁻¹ and a kon of 580000 M⁻¹ s⁻¹. In assay [7], this molecule had a Kd of 0.06 nM, an off-rate (koff) of 3.4e-05 s⁻¹ and an on-rate (kon) of 560000 M⁻¹ s⁻¹.

The values above are taken from patent US20210070876A1.
